Reference: patent US20120309692
Several values for one entry are separate records, joined by “and”; a condition that tells them apart may be missing. Equal values may be shown once.

What was measured:
[1] = test system: Boc-Phe-Ser-Arg-AMC (SEQ ID NO: 53)
[2] = test system: GAEQKRRL (SEQ ID NO: 103)
[3] = test system: H-Arg-Gln-Arg-Arg-AMC (SEQ ID NO: 63)
[4] = test system: GGKAR-dR-L (SEQ ID NO: 122)
[5] = test system: Boc-Gln-Gly-Arg-AMC (SEQ ID NO: 54)
[6] = test system: GHEQKRR-dL (SEQ ID NO: 110)
[7] = test system: GHEQARRL (SEQ ID NO: 108)
[8] = target: protein C inhibitor (PCI) (UniProt P05154)
protein C inhibitor (PCI), sequence (P05154 20-406): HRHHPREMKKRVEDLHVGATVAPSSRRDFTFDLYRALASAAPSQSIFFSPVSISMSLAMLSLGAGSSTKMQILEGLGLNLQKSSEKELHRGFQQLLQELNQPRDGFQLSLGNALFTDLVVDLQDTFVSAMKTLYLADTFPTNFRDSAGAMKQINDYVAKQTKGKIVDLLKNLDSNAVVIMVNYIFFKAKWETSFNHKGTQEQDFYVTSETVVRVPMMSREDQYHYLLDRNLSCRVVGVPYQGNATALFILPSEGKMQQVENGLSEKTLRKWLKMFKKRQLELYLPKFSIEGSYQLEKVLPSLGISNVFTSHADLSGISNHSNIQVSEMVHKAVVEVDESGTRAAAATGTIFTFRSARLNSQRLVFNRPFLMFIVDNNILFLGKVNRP

[9] = test system: GHEQKRRE (SEQ ID NO: 113)
[10] = test system: Z-Ala-Arg-Arg-AMC (SEQ ID NO: 62)
[11] = test system: Z-Val-Val-Arg-AMC (SEQ ID NO: 61)
[12] = test system: H-Pro-Phe-Arg-AMC (SEQ ID NO: 55)
[13] = test system: boc-Val-Pro-Arg-AMC (SEQ ID NO: 56)
[14] = test system: Tos-Gly-Pro-Arg-AMC (SEQ ID NO: 58)
[15] = test system: GGKA-dR-RL (SEQ ID NO: 119)
[16] = test system: Z-Leu-Leu-Arg-AMC (SEQ ID NO: 60)
[17] = test system: GGKA-dR-dR-L (SEQ ID NO: 123)
[18] = test system: H-D-Val-Leu-Lys-AMC (SEQ ID NO: 57)
[19] = test system: Tos-Gly-Pro-Lys-AMC (SEQ ID NO: 59)
Semenogelin II = Semenogelin II (UniProt Q02383)
Semenogelin II, sequence (Q02383 24-582): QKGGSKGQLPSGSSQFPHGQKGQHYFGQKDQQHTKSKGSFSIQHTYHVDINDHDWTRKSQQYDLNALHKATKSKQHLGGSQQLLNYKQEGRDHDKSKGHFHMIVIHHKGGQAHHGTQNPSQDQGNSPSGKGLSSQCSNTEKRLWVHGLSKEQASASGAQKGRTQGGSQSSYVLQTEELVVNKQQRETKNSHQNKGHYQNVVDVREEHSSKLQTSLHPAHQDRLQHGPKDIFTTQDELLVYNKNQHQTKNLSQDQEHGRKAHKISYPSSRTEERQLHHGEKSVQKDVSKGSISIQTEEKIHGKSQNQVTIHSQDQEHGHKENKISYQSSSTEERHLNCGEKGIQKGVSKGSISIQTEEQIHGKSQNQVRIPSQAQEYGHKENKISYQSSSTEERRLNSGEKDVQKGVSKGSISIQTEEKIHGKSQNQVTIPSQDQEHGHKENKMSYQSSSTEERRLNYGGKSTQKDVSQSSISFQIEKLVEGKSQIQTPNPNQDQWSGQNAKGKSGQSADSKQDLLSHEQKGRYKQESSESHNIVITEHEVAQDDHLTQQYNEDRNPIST

Semenogelin I = Semenogelin I (UniProt P04279)
Semenogelin I, sequence (P04279 24-462): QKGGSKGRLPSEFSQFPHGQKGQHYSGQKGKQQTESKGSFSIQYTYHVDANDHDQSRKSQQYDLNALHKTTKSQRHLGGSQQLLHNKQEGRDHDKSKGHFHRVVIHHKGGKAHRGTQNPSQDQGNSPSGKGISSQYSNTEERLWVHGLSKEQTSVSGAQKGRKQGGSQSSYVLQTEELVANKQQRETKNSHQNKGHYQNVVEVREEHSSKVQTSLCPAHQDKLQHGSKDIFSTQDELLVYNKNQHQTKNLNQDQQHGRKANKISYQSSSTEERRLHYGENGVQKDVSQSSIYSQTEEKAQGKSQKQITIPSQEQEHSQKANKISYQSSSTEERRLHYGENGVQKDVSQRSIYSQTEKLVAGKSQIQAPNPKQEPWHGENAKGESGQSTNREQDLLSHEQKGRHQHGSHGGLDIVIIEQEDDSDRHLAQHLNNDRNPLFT

In the case of “recombinant human glandular kallikrein 2 (hK2)”, the hK2 Hydrolysis Rate (GSKGHFHL (SEQ ID NO: 81)) was 171 FU/hr/m, the “substrate hydrolysis by hK2” value [1] was “NR” and the hK2 Hydrolysis Rate [2] was 2330 FU/hr/m. For the same substance, the “substrate hydrolysis by hK2” value [3] was “NR”, the hK2 Hydrolysis Rate (GPLILSRL (SEQ ID NO: 83)) was 118 FU/hr/m and the hK2 Hydrolysis Rate (GSNTEKRL (SEQ ID NO: 80)) was 256 FU/hr/m. It also gave a hK2 Hydrolysis Rate (GGKHRRL (SEQ ID NO: 107)) of 2080 FU/hr/m, a hK2 Hydrolysis Rate (GPAHQRRL (SEQ ID NO: 69)) of 4020 FU/hr/m and a hK2 Hydrolysis Rate (GSYEERHL (SEQ ID NO: 84)) of 42.9 FU/hr/m. For the same substance, the hK2 Hydrolysis Rate [4] was 49.6 FU/hr/m, the hK2 Hydrolysis Rate (GSYPSRRL (SEQ ID NO: 74)) was 2060 FU/hr/m and the hK2 Hydrolysis Rate (GGGKAHRL (SEQ ID NO: 68)) was 4100 FU/hr/m. For the same substance, the “substrate hydrolysis by hK2” value [5] was “NR”, the hK2 Hydrolysis Rate [6] was 1690 FU/hr/m and the hK2 Hydrolysis Rate (GSQNQVRL (SEQ ID NO: 82)) was 194 FU/hr/m. The hK2 Hydrolysis Rate (GHEQKGRL (SEQ ID NO: 76)) was 651 FU/hr/m, the hK2 Hydrolysis Rate (GPAHQDHL (SEQ ID NO: 90)) was 48.1 FU/hr/m and the hK2 Hydrolysis Rate [7] was 1960 FU/hr/m. The hK2 Hydrolysis Rate (GGKAHRL (SEQ ID NO: 114)) was 1290 FU/hr/m, the hK2 Hydrolysis Rate (GGKARRL (SEQ ID NO: 105)) was 2170 FU/hr/m and the hK2 Hydrolysis Rate (GGKAFRL (SEQ ID NO: 102)) was 2370 FU/hr/m. The “progress curves of Pro-Phe-Arg-AMC hydrolysis by 8 nM hK2 with 80, 40 or 16 nM PCI” value [8] was “The inhibitor of hK2 by PCI could be described by the slow-binding inhibition mechanism presented in Scheme 2”, the hK2 Hydrolysis Rate (GHEQKRRS (SEQ ID NO: 99)) was 2640 FU/hr/m and the hK2 Hydrolysis Rate (GGKKRRL (SEQ ID NO: 100)) was 2580 FU/hr/m. It also gave a hK2 Hydrolysis Rate (GHAQKRRL (SEQ ID NO: 93)) of 3670 FU/hr/m, a hK2 Hydrolysis Rate (GGKQRRL (SEQ ID NO: 106)) of 2170 FU/hr/m and a hK2 Hydrolysis Rate [9] of 1470 FU/hr/m. For the same substance, the hK2 Hydrolysis Rate (GGKARKL (SEQ ID NO: 112)) was 1600 FU/hr/m, the hK2 Hydrolysis Rate (GHEQKRRL (SEQ ID NO: 66)) was 5970 FU/hr/m and 3370 FU/hr/m and the hK2 Hydrolysis Rate (GGKSRRL (SEQ ID NO: 94)) was 3440 FU/hr/m. The hK2 Hydrolysis Rate (GGKAHKL (SEQ ID NO: 121)) was 73.2 FU/hr/m, the Activity (%) with 100 µM substrate, relative to H-Pro-Phe-Arg-AMC [10] was 33% and the Kcat [10] was 0.12 s⁻¹. For the same substance, the Kcat/km [10] was 6000 M⁻¹ s⁻¹, the Km [10] was 20 µM and the “substrate hydrolysis by hK2” value [11] was “NR”. It also gave a hK2 Hydrolysis Rate (GPAHQDRL (SEQ ID NO: 88)) of 75.3 FU/hr/m, a hK2 Hydrolysis Rate (GKDVSGRL (SEQ ID NO: 79)) of 243 FU/hr/m and an Activity (%) with 100 µM substrate, relative to H-Pro-Phe-Arg-AMC [12] of 100%. The Kcat [12] was 0.917 s⁻¹, the Kcat/km [12] was 22900 M⁻¹ s⁻¹ and the Km [12] was 40 µM. The “rate of cleavage of 100 µM substrate by 1.6 pmol hK2” value [12] was 1.6 pmol of the hK2 preparation cleaved 50 pmol/min of the 100 µM substrate Pro-Phe-Arg-AMC, the hK2 Hydrolysis Rate (GGKARHL (SEQ ID NO: 117)) was 939 FU/hr/m and the hK2 Hydrolysis Rate (GGKARQL (SEQ ID NO: 116)) was 1020 FU/hr/m. For the same substance, the Activity (%) with 100 µM substrate, relative to H-Pro-Phe-Arg-AMC [13] was 6%, the Kcat [13] was 0.0267 s⁻¹ and the Kcat/km [13] was 567 M⁻¹ s⁻¹. For the same substance, the Km [13] was 48 µM, the hK2 Hydrolysis Rate (GSNTEKHL (SEQ ID NO: 87)) was 80.5 FU/hr/m and the hK2 Hydrolysis Rate (GSQNQRRL (SEQ ID NO: 73)) was 2100 FU/hr/m. The “substrate hydrolysis by hK2” value [14] was “NR”, the hK2 Hydrolysis Rate (GGKAQRL (SEQ ID NO: 104)) was 2230 FU/hr/m and the hK2 Hydrolysis Rate (GGAKRRL (SEQ ID NO: 98)) was 2770 FU/hr/m. It also gave a hK2 Hydrolysis Rate (GGHKRRL (SEQ ID NO: 101)) of 2430 FU/hr/m, a hK2 Hydrolysis Rate (GHEAKRRL (SEQ ID NO: 95)) of 3320 FU/hr/m and a hK2 Hydrolysis Rate (GKDVSGHL (SEQ ID NO: 85)) of 67.5 FU/hr/m. For the same substance, the hK2 Hydrolysis Rate (GGKAKKL (SEQ ID NO: 120)) was 77.9 FU/hr/m, the hK2 Hydrolysis Rate [15] was 494 FU/hr/m and the hK2 Hydrolysis Rate (GHEQKRRA (SEQ ID NO: 97)) was 3050 FU/hr/m. The hK2 Hydrolysis Rate (GGGKAHHL (SEQ ID NO: 86)) was 70.2 FU/hr/m, the hK2 Hydrolysis Rate (GSKGHFRL (SEQ ID NO: 70)) was 3030 FU/hr/m and the hK2 Hydrolysis Rate (GSQNQVHL (SEQ ID NO: 92)) was 32.5 FU/hr/m. The Activity (%) with 100 µM substrate, relative to H-Pro-Phe-Arg-AMC [16] was 7%, the Kcat [16] was 0.04 s⁻¹ and the Kcat/km [16] was 567 M⁻¹ s⁻¹. For the same substance, the Km [16] was 71 µM, the hK2 Hydrolysis Rate (GGQKRRL (SEQ ID NO: 96)) was 3270 FU/hr/m and the hK2 Hydrolysis Rate [17] was 16.5 FU/hr/m. The hK2 Hydrolysis Rate (GSKGHRRL (SEQ ID NO: 71)) was 2650 FU/hr/m, the hK2 Hydrolysis Rate (GGKAKRL (SEQ ID NO: 109)) was 1790 FU/hr/m and the hK2 Hydrolysis Rate (GGKARNL (SEQ ID NO: 118)) was 828 FU/hr/m. The hK2 Hydrolysis Rate (GHEQKGHL (SEQ ID NO: 89)) was 1.3 FU/hr/m, the hK2 Hydrolysis Rate (GSYPSSHL (SEQ ID NO: 91)) was 24.7 FU/hr/m and the hK2 Hydrolysis Rate (GKDVSRRL (SEQ ID NO: 72)) was 2320 FU/hr/m. The “substrate hydrolysis by hK2” value [18] was “NR”, the hK2 Hydrolysis Rate (GGKARRS (SEQ ID NO: 111)) was 1610 FU/hr/m and the “substrate hydrolysis by hK2” value [19] was “NR”. The hK2 Hydrolysis Rate (GSYEERRL (SEQ ID NO: 78)) was 325 FU/hr/m, the hK2 Hydrolysis Rate (GSYPSSRL (SEQ ID NO: 75)) was 1460 FU/hr/m and the “cleavage by hK2 (HPLC of fragments)” value (Semenogelin II) was “Cleavage of either Sg I or Sg II with hK2 results in generation of a multitude of peptides”. For the same substance, the “cleavage by hK2 (HPLC of fragments)” value (Semenogelin I) was “Cleavage of either Sg I or Sg II with hK2 results in generation of a multitude of peptides”, the hK2 Hydrolysis Rate (GGGKARRL (SEQ ID NO: 67)) was 4780 FU/hr/m and the hK2 Hydrolysis Rate (GGKANRL (SEQ ID NO: 115)) was 1110 FU/hr/m. It also gave a hK2 Hydrolysis Rate (GSNTERRL (SEQ ID NO: 77)) of 592 FU/hr/m.
